Assay results from US20230272073A1.

How the values were obtained:
[1] = molecular target: membrane-bound IGHV3-21/IGLV3-21^R110 BCR on murine TKO cells (human); experiment: flow cytometry dot plot, cell mix A (1:1 IGHV3-21/IGLV3-21^R110 BCR TKO cells and BCR-negative TKO cells), 2 µg/ml anti-human IgM-PE
[2] = molecular target: IGHV3-21/IGLV3-21^G110 BCR on murine TKO cells (human) (UniProt P01871); experiment: flow cytometry dot plot, cell mix B (1:1 IGHV3-21/IGLV3-21^G110 BCR TKO cells and BCR-negative TKO cells), 2 µg/ml anti-human IgM-PE
IGHV3-21/IGLV3-21^G110 BCR on murine TKO cells (human), sequence (P01871 other isoform, or with tags, fused parts or gaps, chain 1 of 2): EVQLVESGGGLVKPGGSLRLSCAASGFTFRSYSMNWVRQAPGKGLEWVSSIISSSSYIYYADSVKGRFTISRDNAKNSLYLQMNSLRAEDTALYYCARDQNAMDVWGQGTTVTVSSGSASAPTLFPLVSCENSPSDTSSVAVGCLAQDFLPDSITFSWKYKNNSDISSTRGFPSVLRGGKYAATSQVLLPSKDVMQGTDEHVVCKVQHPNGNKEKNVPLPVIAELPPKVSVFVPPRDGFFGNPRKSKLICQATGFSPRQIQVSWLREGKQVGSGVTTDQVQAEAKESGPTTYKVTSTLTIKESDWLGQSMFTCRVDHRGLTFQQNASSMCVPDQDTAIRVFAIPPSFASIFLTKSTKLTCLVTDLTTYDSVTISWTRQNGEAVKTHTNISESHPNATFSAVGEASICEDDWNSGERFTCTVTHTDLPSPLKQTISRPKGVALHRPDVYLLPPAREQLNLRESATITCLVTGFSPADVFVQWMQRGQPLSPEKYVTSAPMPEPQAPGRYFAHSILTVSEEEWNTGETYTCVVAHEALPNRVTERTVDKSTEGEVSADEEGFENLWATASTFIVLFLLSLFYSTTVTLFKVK
IGHV3-21/IGLV3-21^G110 BCR on murine TKO cells (human), sequence (light, as listed by the source, chain 2 of 2): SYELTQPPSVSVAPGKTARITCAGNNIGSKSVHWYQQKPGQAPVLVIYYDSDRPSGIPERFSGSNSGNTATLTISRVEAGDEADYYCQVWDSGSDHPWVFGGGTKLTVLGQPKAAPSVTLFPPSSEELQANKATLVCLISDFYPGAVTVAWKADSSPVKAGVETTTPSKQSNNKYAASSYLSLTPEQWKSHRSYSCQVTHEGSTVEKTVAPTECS

membrane-bound IGHV3-21/IGLV3-21^R110 BCR on murine TKO cells (human), sequence (P01871 other isoform, or with tags, fused parts or gaps, chain 1 of 2): as the sequence (P01871 other isoform, or with tags, fused parts or gaps, chain 1 of 2) above
membrane-bound IGHV3-21/IGLV3-21^R110 BCR on murine TKO cells (human), sequence (light, as listed by the source, chain 2 of 2): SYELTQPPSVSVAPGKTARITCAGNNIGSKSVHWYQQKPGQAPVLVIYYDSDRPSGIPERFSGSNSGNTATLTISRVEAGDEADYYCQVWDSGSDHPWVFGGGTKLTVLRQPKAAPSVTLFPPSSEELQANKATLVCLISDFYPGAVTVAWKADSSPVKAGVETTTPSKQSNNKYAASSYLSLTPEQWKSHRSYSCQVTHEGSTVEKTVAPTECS

share of gated cells (P1) in quadrant Q1 (anti-IgM-PE positive, mAb01-01-APC negative) [1]: 2.78% | share of gated cells (P1) in quadrant Q2 (anti-IgM-PE positive, mAb01-01-APC positive) [1]: 45.5% | share of gated cells (P1) in quadrant Q1 (anti-IgM-PE positive, mAb01-01-APC negative) [2]: 42.2% | share of gated cells (P1) in quadrant Q2 (anti-IgM-PE positive, mAb01-01-APC positive) [2]: 1.11%
Substance: Anti-human IgM-PE, Clone: MHM-88, BioLegend Cat-No.: 314508 (antibody)
